T1: S protein of live MERS-CoV EMC/2012 (MERS-CoV)
T1 chain: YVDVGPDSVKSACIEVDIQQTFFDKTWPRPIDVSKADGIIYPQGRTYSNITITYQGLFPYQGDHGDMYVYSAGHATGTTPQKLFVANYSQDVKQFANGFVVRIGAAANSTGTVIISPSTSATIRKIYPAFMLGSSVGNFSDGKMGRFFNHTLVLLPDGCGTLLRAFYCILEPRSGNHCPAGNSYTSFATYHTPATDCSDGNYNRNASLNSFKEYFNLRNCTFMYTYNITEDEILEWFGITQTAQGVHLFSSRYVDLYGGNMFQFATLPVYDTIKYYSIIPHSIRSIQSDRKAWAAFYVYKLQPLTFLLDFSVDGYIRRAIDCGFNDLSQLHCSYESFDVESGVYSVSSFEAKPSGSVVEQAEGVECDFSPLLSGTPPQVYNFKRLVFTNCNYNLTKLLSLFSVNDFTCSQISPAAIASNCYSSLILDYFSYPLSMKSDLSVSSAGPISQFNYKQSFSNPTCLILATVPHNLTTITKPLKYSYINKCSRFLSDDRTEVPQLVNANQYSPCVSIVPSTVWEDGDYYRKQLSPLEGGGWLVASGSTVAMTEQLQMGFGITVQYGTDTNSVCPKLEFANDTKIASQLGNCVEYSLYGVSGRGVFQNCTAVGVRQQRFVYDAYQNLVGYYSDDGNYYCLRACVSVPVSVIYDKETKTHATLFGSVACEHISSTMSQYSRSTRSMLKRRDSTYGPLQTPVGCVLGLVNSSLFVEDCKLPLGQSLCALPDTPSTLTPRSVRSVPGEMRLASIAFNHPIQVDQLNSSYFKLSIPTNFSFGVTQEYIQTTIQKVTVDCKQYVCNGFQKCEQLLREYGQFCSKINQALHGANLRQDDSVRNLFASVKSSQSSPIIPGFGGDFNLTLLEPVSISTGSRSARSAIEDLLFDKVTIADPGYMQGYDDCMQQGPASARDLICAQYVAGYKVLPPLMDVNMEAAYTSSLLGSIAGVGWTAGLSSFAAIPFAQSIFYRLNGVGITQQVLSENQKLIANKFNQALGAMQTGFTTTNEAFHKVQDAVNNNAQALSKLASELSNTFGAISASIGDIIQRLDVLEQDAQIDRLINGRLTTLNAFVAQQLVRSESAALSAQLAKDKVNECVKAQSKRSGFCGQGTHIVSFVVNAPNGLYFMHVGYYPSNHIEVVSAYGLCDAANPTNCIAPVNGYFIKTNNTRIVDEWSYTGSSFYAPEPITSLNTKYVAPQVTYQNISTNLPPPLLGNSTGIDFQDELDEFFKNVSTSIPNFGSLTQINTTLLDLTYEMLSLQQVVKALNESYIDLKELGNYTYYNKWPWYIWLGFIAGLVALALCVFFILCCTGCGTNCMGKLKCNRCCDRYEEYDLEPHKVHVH

B1: 3A1 scFvFc (scFv, V domains shown)
VH: QVQLVQSGAEVKKPGSSVKVSCKASGGTFSSYAVSWVRQAPGQGLEWVGRIIPIFGKANYAQKFQGRVTITADKSTSTAYMELSSLRPEDTAVYYCARDQGISANFKDAFDIWGQGTTVTVSS
VL: ETTLTQSPATLSVSPGERATLSCRASESVGSNLAWYQQKPGQAPSLLIYGASTRATGIPDRFSGSGSGTDFTLTISSLQSEDFAAYYCQQYNNWPLTFGPGTKVEIK
B2: 3A1 IgG1 (antibody, V domains shown)
VH: QVQLVQSGAEVKKPGSSVKVSCKASGGTFSSYAVSWVRQAPGQGLEWVGRIIPIFGKANYAQKFQGRVTITADKSTSTAYMELSSLRPEDTAVYYCARDQGISANFKDAFDIWGQGTTVTVSS
VL: ETTLTQSPATLSVSPGERATLSCRASESVGSNLAWYQQKPGQAPSLLIYGASTRATGIPDRFSGSGSGTDFTLTISSLQSEDFAAYYCQQYNNWPLTFGPGTKVEIK
B3: 1F8 IgG1 (antibody, V domains shown)
VH: EVQLVQSGAEVKEPGSSVKVSCKASGGTFGSYAINWVRQAPGQRLEWMGWIDAANGNTKYSQKFQGRVTITGDTSASTAYMELSSLRSEDTAVYYCARDRWMTTRAFDIWGQGTMVTVSS
VL: QPVLTQPPSASGTPGQRVTISCSGSSSNIGSNYVFWYQQLPGMAPKLLISRNNQRPSGVPDRFSGSKSGTSASLAISGPQSEDEADYYCAAWDDSLRGPVFGGGTRVTVL
B4: 3B12 scFvFc (scFv, V domains shown)
VH: QVQLVQSGAEVKKPGSSVKVSCKASGGTFSSYAISWVRQAPGQGLEWMGGIIPIFGTANYAQKFQGRVTITADKSTSTAYMELSSLRSEDTAVYYCARASYCSTTSCASGAFDIWGQGTLVTVSS
VL: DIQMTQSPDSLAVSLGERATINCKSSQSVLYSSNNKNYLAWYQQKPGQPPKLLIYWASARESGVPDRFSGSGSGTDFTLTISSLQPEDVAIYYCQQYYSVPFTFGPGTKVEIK
B5: 3B11 IgG1 (antibody, V domains shown)
VH: QVQLVQSGAEVKKPGSSVKVSCKASGGTFSSYAISWVRQAPGQGLEWMGGIIPIFGTANYAQKFQGRVTITADKSTSTAYMELSSLRSEDTAVYYCARVGYCSSTSCHIGAFDIWGQGTTVTVSS
VL: ETTLTQSPGTLSLSPGERATLSCRASQSVSSSIAWYQQKPGQAPRLLMFDSSTRATGIPDRFSGSGSGTDFTLNISSLEPEDFAVYYCQQYSSSPYTFGQGTKLEIK

Legend:
[1] = target: S protein of live MERS-CoV EMC/2012 (MERS-CoV); test: cell-based or functional assay
[2] = target: T1, S protein of live MERS-CoV EMC/2012; test: cell-based or functional assay

| Binder | IC50 (µg/ml), PRNT50 live virus, wt. [1] [µg/mL] | IC50 (µg/ml), PRNT50 live virus, wt. [2] [µg/mL] |
| --- | --- | --- |
| B1 | 1.46 |  |
| B2 | 4.5 |  |
| B3 | 4.05 |  |
| B4 |  | 1.25 |
| B5 | 3.5 |  |
